Reference: patent US20110301073

Columns and labels:
Assay in all cases: cell_activity
[1] = test system: POU5F1 TALEN 101225 (NN half repeat) (Xanthomonas sp. (engineered)); conditions: paired with 101125; NN half repeat
[2] = test system: POU5F1 TALEN 101229 (half repeat for G) (Xanthomonas sp. (engineered)); conditions: paired with 101138
[3] = test system: POU5F1 TALEN 101138 (Xanthomonas sp. (engineered)); conditions: paired with 101229
[4] = test system: TALEN 101126 (synthetic (Xanthomonas TALE)); conditions: paired with 101124
[5] = test system: POU5F1 TALEN 101125 (Xanthomonas sp. (engineered)); conditions: paired with 101225
[6] = test system: TALEN 101124 (synthetic (Xanthomonas TALE)); conditions: paired with 101126

With “CACCTGCAGCTGCCCAG (double strand) [101225 site]” the activity [1] was 5 % NHEJ.

In the case of “CCCCCATTCCTAGAAGG (double strand) [101229 site]”, the activity [2] is reported as 25.6 % NHEJ.

“CTGGGCTCTCCCAT (double strand) [101138 site]” showed an activity [3] of 25.6 % NHEJ.

Work on “GACCCTGCCTGCT (double strand) [101126 site]” yielded an activity [4] of 2.2 % NHEJ.

In the case of “GACCCTGCCTGCTCCT (double strand) [101125 site]”, the activity [5] is reported as 5 % NHEJ.

“GCAGCTGCCCAGACCT (double strand) [101124 site]” gave an activity [6] of 2.2 % NHEJ.
